Measured values taken from patent US20110262445A1 (CEPHALON AUSTRALIA, published 2011).

Assays:
human IL-12 [1] = biological target: T1, human IL-12 (human, UniProt P29460 23-328; P29459 23-219); assay: ELISA, coated IL-12
T1 construct: Recombinant (Peprotech); FLAG-tagged IL-12 in the flow cytometry assays, biotinylated in the IL-12Rβ2 assay; also called hIL-12
T1 sequence 1: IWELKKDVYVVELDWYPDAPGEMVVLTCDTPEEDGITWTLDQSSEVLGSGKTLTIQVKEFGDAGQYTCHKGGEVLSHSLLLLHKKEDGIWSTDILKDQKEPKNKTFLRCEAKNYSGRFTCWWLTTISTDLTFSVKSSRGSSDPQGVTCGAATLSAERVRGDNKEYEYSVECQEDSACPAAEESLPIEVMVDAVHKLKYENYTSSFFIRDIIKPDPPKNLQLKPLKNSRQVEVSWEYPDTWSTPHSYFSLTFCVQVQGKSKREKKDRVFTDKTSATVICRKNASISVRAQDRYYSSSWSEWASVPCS
T1 sequence 2: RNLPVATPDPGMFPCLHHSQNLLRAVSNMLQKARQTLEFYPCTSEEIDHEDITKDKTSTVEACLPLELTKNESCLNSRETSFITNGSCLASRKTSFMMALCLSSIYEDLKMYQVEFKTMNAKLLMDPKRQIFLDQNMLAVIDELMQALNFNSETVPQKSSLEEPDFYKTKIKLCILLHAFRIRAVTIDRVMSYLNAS
Method in brief: (§1)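 Maxisorp plates were coated overnight at 4° C with cytokine at 1 μg/mL in carbonate buffer pH 9.6, then blocked for 1 hour at 25° C with 1% BSA in PBS. Antibody titrations were allowed to bind for 1 hour at 25° C and detected with goat anti-human IgG or anti-murine immunoglobulin HRP (1:2000, 1 hour), followed by TMB development stopped with 1M HCl. Binding is reported as absorbance. Readings were taken at 450 nm against a 620 nm reference.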

human IL-23 [2] = biological target: T2, human IL-23 (human, UniProt P29460 23-328; Q9NPF7 20-189); assay: ELISA, coated IL-23
T2 construct: Recombinant (Ebioscience); HIS-tagged in flow cytometry, biotinylated in some assays; also called hIL-23; rhIL-23
T2 sequence 1: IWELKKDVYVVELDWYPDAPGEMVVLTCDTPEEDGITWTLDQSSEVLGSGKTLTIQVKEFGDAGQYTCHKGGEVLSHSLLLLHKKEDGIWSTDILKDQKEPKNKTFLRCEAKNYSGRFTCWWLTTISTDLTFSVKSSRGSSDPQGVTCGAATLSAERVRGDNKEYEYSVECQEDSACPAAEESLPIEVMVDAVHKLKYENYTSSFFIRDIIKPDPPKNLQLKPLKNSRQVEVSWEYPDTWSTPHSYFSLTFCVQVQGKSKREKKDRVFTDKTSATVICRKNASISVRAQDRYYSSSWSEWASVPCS
T2 sequence 2: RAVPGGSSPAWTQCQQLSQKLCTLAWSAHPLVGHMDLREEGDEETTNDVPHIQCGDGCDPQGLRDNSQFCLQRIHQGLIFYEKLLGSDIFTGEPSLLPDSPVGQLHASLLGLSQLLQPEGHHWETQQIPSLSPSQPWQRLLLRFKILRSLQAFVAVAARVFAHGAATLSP
Method in brief: as §1

human IL-12 [3] = biological target: T1, human IL-12; assay: SPR, IgG on Protein A
Protocol: (§2) Using a SPR 3000, Protein A was immobilized onto FC1 and FC2 (or alternatively FC3 and FC4) of a CM5 research grade sensor chip using amine coupling, giving approximately […] RU. FC1 was used a blank throughout the experiments. The experiments were run in HBS-P buffer (SPR). At a flow rate of 20 μl/min, 20 μl of 5 μg/mL of antibody was passed over FC2. IL-12, IL-23 or IL-12p40 (Peprotech) were passed over the surface of FC1 and FC2 at concentrations ranging from 66 nM to 2 nM. Regeneration of the surface was performed using 10 mM Glycine, pH 1.0. The sensorgram data from FC2 was subtracted from FC1 and a buffer only control. The curves were fitted using a 1:1 Langmuir equation to generate the kd, ka and KD values. All curves were fitted with a χ² of less then 2.0 where possible.

human IL-23 [4] = biological target: T2, human IL-23; assay: SPR, IgG on Protein A
Protocol: as §2

human IL-23 [5] = biological target: T2, human IL-23; assay: SPR, single 81 nM analyte, scFv via FLAG; LOD about 1 × 10^-5 s^-1
human IL-23 [6] = biological target: T2, human IL-23; assay: SPR, single 81 nM analyte, scFv via FLAG

B1: Antibody 51 (antibody, human IgG1, kappa, V domains shown)
VH: EVQLVQSGAEVKKPGATVKISCKASGYTFSDYYLHWVRQAPGKGLEWMGWIDPENGDTEYAPKFQGRVTITADTSTDTGYLELSSLRSEDTAVYYCAANKELRYFDVWGQGTLVTVSS
VL: DIQMTQSPSSVSASVGDRVTITCRASQSISINLHWYQQKPGKAPKLLIYFASQSISGVPSRFSGSGSGTDFSLTINSLQPEDFATYYCQQSNSFPLTFGGGTKVEIKR
- binding result (human IL-12 [1]): binds
- binding result (human IL-23 [2]): binds

B2: Antibody 52 (antibody, human IgG1, kappa, V domains shown)
VH: EVQLVQSGAEVKKPGATVKISCKASGYTFSDYYLHWVRQRPGKGLEWMGWIDPENGDTEYAPKFQGRVTITADTSTDTGYLELSSLRSEDTAVYYCAANKELRYFDVWGQGTLVTVSS
VL: DIQMTQSPSSVSASVGDRVTITCRASQSISINLHWYQQKPGKAPKLLIYFASQSISGVPSRFSGSGSGTDFSLTINSLQPEDFATYYCQQSNSFPLTFGGGTKVEIKR
- binding result (human IL-12 [1]): binds
- binding result (human IL-23 [2]): binds

B3: Antibody 3 (antibody, human IgG1, kappa, V domains shown)
VH: EVQLQQSGADLVRSGASIKLSCTASGFNIKDYYMHWVKQRPEQGLEWIGWIDPENGDTEYAPKFQGKATMTADTSSNTAYLQLSSLTSEDTAVYYCNACKELRYFDVWGAGTTVTVSS
VL: DIVLTQSPATLSVTPGDSVSLSCRASQSISINLHWYQQKSHESPRLLIKFASQSISGIPSRFSGYGSGTDFTLSINSVETEDFGRYFCQQSNSFPLTFGAGTKLELKR
notes: Antibody 1 with light chain W94F
- Kd (human IL-12 [3]): 0.0438 nM
- koff (human IL-12 [3]): 9.39e-05 s⁻¹
- kon (human IL-12 [3]): 2.15e+06 M⁻¹ s⁻¹
- Kd (human IL-23 [4]): 0.0896 nM
- koff (human IL-23 [4]): 0.000111 s⁻¹
- kon (human IL-23 [4]): 1.24e+06 M⁻¹ s⁻¹

B4: Antibody 4 (antibody, human IgG1, kappa, V domains shown)
VH: EVQLQQSGADLVRSGASIKLSCTASGFNIKDYYLHWVKQRPEQGLEWIGWIDPENGDTEYAPKFQGKATMTADTSSNTAYLQLSSLTSEDTAVYYCNACKELRYFDVWGAGTTVTVSS
VL: DIVLTQSPATLSVTPGDSVSLSCRASQSISINLHWYQQKSHESPRLLIKFASQSISGIPSRFSGYGSGTDFTLSINSVETEDFGRYFCQQSNSWPLTFGAGTKLELKR
notes: Antibody 1 with heavy chain M34L
- Kd (human IL-12 [3]): 0.133 nM
- koff (human IL-12 [3]): 0.000204 s⁻¹
- kon (human IL-12 [3]): 1.54e+06 M⁻¹ s⁻¹
- Kd (human IL-23 [4]): 0.127 nM
- koff (human IL-23 [4]): 0.000158 s⁻¹
- kon (human IL-23 [4]): 1.25e+06 M⁻¹ s⁻¹

B5: Antibody 7 (antibody, human IgG1, kappa, V domains shown)
VH: EVQLQQSGADLVRSGASIKLSCTASGFNIKDYYMHWVKQRPEQGLEWIGWIDPENGDTEYAPKFQGKATMTADTSSNTAYLQLSSLTSEDTAVYYCNANKELRYFDVWGAGTTVTVSS
VL: DIVLTQSPATLSVTPGDSVSLSCRASQSISINLHWYQQKSHESPRLLIKFASQSISGIPSRFSGYGSGTDFTLSINSVETEDFGRYFCQQSNSWPLTFGAGTKLELKR
notes: Antibody 1 with heavy chain C95N
- Kd (human IL-12 [3]): 0.0918 nM
- koff (human IL-12 [3]): 0.000167 s⁻¹
- kon (human IL-12 [3]): 1.82e+06 M⁻¹ s⁻¹
- Kd (human IL-23 [4]): 0.0722 nM
- koff (human IL-23 [4]): 0.000147 s⁻¹
- kon (human IL-23 [4]): 2.03e+06 M⁻¹ s⁻¹

B6: scFv combo. # 1 (scFv)
scFv: QVQLVQSGAEVKKPGASVKVSCKASGYTFTDYYLHWVRQAPGRGLEWMGWIDPENGDTEHAPKFQGRVTMTTDTSTSTAYMELRSLRSDDTAVYYCNANKELRYFDVWGQGTMVTVSSGGGGSGGGGSGGGGSEIVMTQSPATLSVSPGERATLSCRASQSISINLHWYQQKPGQAPRLLIYFASQSTSGIPARFSGSGSGTEFTLTISSLQSEDFAVYYCQQSNSFPLTFGGGTKVEIKR
notes: scFv-80 with VH Q43R, Y59H; VL I55T; not shown: proprietary C-terminal FLAG tag
- koff (human IL-23 [5]): < 1e-05 s⁻¹
- Kd (human IL-23 [6]): ≤ 0.032 nM
- kon (human IL-23 [6]): 230000 M⁻¹ s⁻¹

B7: scFv combo. # 7 (scFv)
scFv: QVQLVQSGAEVKKPGASVKVSCKASGYTLTDYYLHWVRQAPGQGLEWMGWIDPENGDTEHAPKFQGRVTMTTDTSTSTAYMELRSLRSDDTAVYYCNANKELRYFDVWGQGTMVTVSSGGGGSGGGGSGGGGSEIVMTQSPATLSVSPGERATLSCRASQSISINLHWYQQKPGQAPRLLIYFASQSISGIPARFSGSGSGTEFTLTISSLQSEDFAVYYCQQSNSFPLTFGGGTKVEIKR
notes: scFv-80 with VH F29L, Y59H; not shown: proprietary C-terminal FLAG tag
- koff (human IL-23 [5]): < 1e-05 s⁻¹
- Kd (human IL-23 [6]): ≤ 0.0033 nM
- kon (human IL-23 [6]): 200000 M⁻¹ s⁻¹
